Consider five molecules from patent publication US20240150462A1 (UNIVERSITY HEALTH NETWORK, published 2024).

The chains are these.
B1: 8D2 (antibody, V domains shown)
VH: QIQLVQSGPELKKPGETVKISCKASGYTFTTYGMSWVKQAPGKGLKWMGWINTYSGAPAYVDDFKGRFAFSLETSASTAYLQINNLKNEDTATYFCARHFYSGSSYWYFDVWGTGTTVTVSS
VL: DIQMTQSPASLSVSVGETVTITCRASENIYSNLAWYQQKQGKSPQLLVYAATNLADGVPSRFSGSGSGTQYSLKINSLQSEDFGSYYCQHFWGTPRTFGGGTKLEIKR
notes: Entries are printed with leader peptide and part of the mouse constant region; also called LILRB2 antibody 8D2
B2: 10A8 (antibody, V domains shown)
VH: EVQLVESGGDFVKPGGSLKLSCAASGFTFSSYDMSWVRQTPDKRLEWVATIIRGDSYTYYLDSVKGRFTISRDNAKNTLYLQMSSLKSEDTAMYYCARPSYGNSFDYWGQGTTLTVSS
VL: DIVMTQSHKFMSTSIGDRVSITCKASQDVNNAVAWYQQKPGQSPKLLIYAASYRYTGVPDRFTGSGSGTDFTFTISSVQAEDLAVYHCQQHYGIPWTFGGGTKLEIKR
notes: Entries are printed with leader peptide and part of the mouse constant region; also called LILRB2 antibody 10A8
B3: 6B3 (antibody, V domains shown)
VH: EVQLQESGPELLKPGASMKISCKASGYTFTDDYMNWVKQSHGKSLEWIGDINPNNGGTSYNQKFKGKATLTVDKSSSTAYMELRSLTSEDSAVYYCARGSPWFAYWGQGTLVTVSA
VL: DIQMTQTTSSLSASLGDRVTINCRASQDIRNYLSWYQQKPDGTVKLLIYYTSRLHSGVPSRFSGSGSGRDYSLTISNLEQEDIATYFCQQSNTLPWTFGGGTKLEITR
notes: Entries are printed with leader peptide and part of the mouse constant region (heavy entry ends within CH1); also called LILRB2 antibody 6B3
B4: 3B3 (antibody, V domains shown)
VH: QVQLQQPGAELVKPGASVKMSCKASDYTFTSYWITWVKKRPGQGLEWIGDIYPGSDTTNYNEKFKNKATLTVDTSSSTAHMQLSSLTSEDSAVYYCTRPLYQGISPWFAYWGQGTLVTVSA
VL: NIVMTQSPKSMSMSVGERVTLSCKASENVGTYVSWYQQKPEQSPKLLIYGASNRYTGVPDRFTGSGSATDFTLTISSVQAEDLADYHCGQSYSYPFTFGSGTKLEIKR
notes: Entries are printed with leader peptide and part of the mouse constant region; also called LILRB2 antibody 3B3
B5: 10D4 (antibody, V domains shown)
VH: QVQLQQSDAELVKPGASVKISCKVSGYTFSDHTFHWMKQRPEQGLEWIGYFYPRDGRSKYNEKFRDKATLTADKSSSTAYMQLNSLTSEDSAVYFCTCDGFDYWGQGTTLTVSS
VL: DIKMTQSPSSMHASLGERVTITCKASQDINSYLSWFQQKPGKSPKTLIYHADRLVDGVPSRFSGSGSGQDYSLTISSLEYEDMGIYYCLQYDEFPYTFGGGTKLEIKR
notes: Entries are printed with leader peptide and part of the mouse constant region; also called LILRB2 antibody 10D4

T1 sequence (Q8N423 22-460): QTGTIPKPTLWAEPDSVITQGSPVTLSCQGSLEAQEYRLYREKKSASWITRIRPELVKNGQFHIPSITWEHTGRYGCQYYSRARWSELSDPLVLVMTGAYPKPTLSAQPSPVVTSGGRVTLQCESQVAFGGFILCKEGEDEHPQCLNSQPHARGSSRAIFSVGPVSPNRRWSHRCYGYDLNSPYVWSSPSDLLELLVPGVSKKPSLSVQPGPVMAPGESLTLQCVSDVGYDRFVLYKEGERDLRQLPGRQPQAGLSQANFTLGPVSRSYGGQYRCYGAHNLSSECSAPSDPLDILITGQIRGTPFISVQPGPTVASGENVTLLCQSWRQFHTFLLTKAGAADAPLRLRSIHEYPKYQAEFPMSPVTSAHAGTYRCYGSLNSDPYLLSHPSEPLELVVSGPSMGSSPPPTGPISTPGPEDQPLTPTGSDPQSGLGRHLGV

This assay concerns the target T1, Recombinant human Fc-tagged extracellular domain of LILRB2 (human, UniProt Q8N423 22-460).
T1 construct: extracellular domain; Bought from R&D Systems; also called LILRB2-Fc; not shown: Fc tag
The assay is described as follows: SPR, Biacore X100; LILRB2-Fc amine-coupled to CM5 chip, antibody injected at 3.7-300 nM. Here is the method:
Dissociation constants (Kd) for mouse anti-human LILRB1 and LIRB2 antibodies were determined using a Biacore X100 surface plasmon resonance instrument (Cytivia). Recombinant human Fc-tagged extracellular domains of LILRB1 or LILRB2 (LILRB1-Fc or LILRB2-Fc; R&D Systems) were immobilized on a Biacore CM5 biosensor chip by amine coupling at a density of 40-50 relative units (RU). Purified mouse monoclonal antibodies were injected over the biosensor in a concentration series of 3.7, 11, 33, 100, and 300 nM in HBS-EP buffer (10 mM HEPS pH 7.4, […], 3 mM EDTA, 0.005% v/v Surfactant P20) at a flow rate of 50 μL/min. Regeneration of the chip was achieved by a 30 s injection of 10 mM glycine-HCl, pH 1.7. Affinity parameters were determined by fitting response data using the accompanying Biacore X100 analysis software.
For orientation: Surface plasmon resonance follows binding to a sensor surface in real time, without labels.
In the case of B1, the “-log(Kd)” value was determined as 8.43.

For B2, the “-log(Kd)” value turned out to be 8.77.

With B3, the “-log(Kd)” value turned out to be 9.02.

For the molecule B4, the “-log(Kd)” value turned out to be 8.01.

In the case of B5, the “-log(Kd)” value amounted to 7.82.
